Tests used:
[1] = target: T1, CAV-2 fiber head (CAV-2H^wt) (Canine adenovirus 2 strain Toronto A 26-61, UniProt Q65914); experiment: X-ray crystal structure ([…] Å); type: binding; settings: crystals grown with 8 mM and soaked in about 80 mM ligand, pH 7.4; Neu5Ac moiety bound at trimer periphery (Asn435, Ser419, Ser416, Gln417, Arg515)
T1 construct: gene L5; fiber head domain residues 358-542, N-terminal His-tag cleaved with TEV, pPROEX HTb; homotrimer

[2] = target: T2, HAd37 fiber head in complex with CAR D1 (Human adenovirus D37, UniProt Q64823); experiment: X-ray crystal structure ([…] Å); type: binding; settings: ligand soaked at 10 to 50 mM; ternary complex with CAR D1; Neu5Ac site of fiber head, not overlapping CAR site; HAd37 Neu5Ac site near the three-fold axis
T2 construct: gene L5; fiber head residues 177-365 with CAR domain D1; one monomer of each in asymmetric unit (space group I23, trimer by symmetry); with Coxsackievirus and adenovirus receptor (human), Ig-like domain D1

[3] = target: CAR D1 (human) (UniProt P78310)
[4] = target: wild type CAV-2 fiber head (canine adenovirus serotype 2 (CAV-2)) (UniProt Q65914); experiment: crystal structure; untagged CAV-2 fiber head crystallised with sialyl-D-lactose; 1.9 Å
[5] = target: wild type CAV-2 fiber head (canine adenovirus serotype 2 (CAV-2)) (UniProt Q65914); experiment: crystal structure; crystals of the CAV-2 fiber head - CAR D1 complex (space group I422) soaked with 10 to 50 mM sialyl-D-lactose; 2.9 Å

Sequence of CAR D1 (human) (P78310 20-140): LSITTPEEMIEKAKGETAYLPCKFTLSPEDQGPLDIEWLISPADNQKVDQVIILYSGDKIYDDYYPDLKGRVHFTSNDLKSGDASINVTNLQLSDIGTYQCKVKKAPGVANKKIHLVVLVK

Compound	X-ray crystal structure (1.9 Å) [1]	X-ray crystal structure (1.55 Å) [2]	fold reduction of CAV-2 hemagglutination of human erythrocytes (CAR on the erythrocytes) after pre-incubating the erythrocytes with the fiber head [3] [fold]	stoichiometry N [4]	stoichiometry N [5]
CC(=O)N[C@H]1[C@H]([C@H](O)[C@H](O)CO)O[C@@](O[C@H]2[C@@H](O)[C@@H](CO)O[C@@H](O[C@H]3[C@H](O)[C@@H](O)C(O)O[C@@H]3CO)[C@@H]2O)(C(=O)O)C[C@@H]1O (stereo partly drawn) [sialyl-D-lactose, α2-3 N-acetylneuraminosyl-D-lactose]	clear density for six N-acetyl neuraminic acid (Neu5AC) moieties in the asymmetric unit	one CAR D1 molecule and one sialyl-D-lactose molecule in the asymmetric unit			
CAV-2H^CAR−: CAV-2 fiber head with E384A mutation (CAR binding site) (from UniProt Q65914 358-542) (domain or fragment)			2		
CAV-2H^SA−1: CAV-2 fiber head mutant R515A (from UniProt Q65914 358-542) (domain or fragment)			16		
wild type CAV-2 fiber head (from UniProt Q65914 358-542) (domain or fragment)			> 256	3	3
